# From patent US20060287320A1, “Preparation of thioarabinofuranosyl compounds and use thereof” (Southern Research Institute, priority 1998, published 2006)
# Tested on: T1, Nc1ccn([C@@H]2S[C@H](CO)[C@@H](O)[C@@H]2O)c(=O)n1
# T1 construct: endogenous in cells; host or cells: Molt-4 cells (enzyme purified from the cells)
# Test: purified protein, by the assay type
# Type: biochemical
# Settings: other: dCyd kinase activity from Molt-4 cells
# Experimental: Each assay was done in duplicate and the kinetic constants were determined from linear double-reciprocal plots of 1/velocity versus 1/concentration of the substrate. The best line was determined by linear regression from at least 5 datum points, and the Km and Vmax were determined from the x and y intercepts.
# Chain of dCyd Kinase Activity Isolated from Molt-4 Cells (Homo sapiens) (chain, as listed by the source): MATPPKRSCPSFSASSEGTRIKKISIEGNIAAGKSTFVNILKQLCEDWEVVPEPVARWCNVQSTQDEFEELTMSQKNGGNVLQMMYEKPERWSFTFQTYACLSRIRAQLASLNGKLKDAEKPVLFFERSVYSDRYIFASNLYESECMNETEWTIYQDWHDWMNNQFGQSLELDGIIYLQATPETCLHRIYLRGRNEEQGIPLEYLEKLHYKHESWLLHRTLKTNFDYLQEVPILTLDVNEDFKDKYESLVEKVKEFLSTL
substance,measurement,value
dCyd Kinase Activity Isolated from Molt-4 Cells (Homo sapiens),Km,93 µM
